Assay [1] relates to parallel and nonparallel G4s. Briefly: ELISA comparison of G4 binding affinity between G4P and monomeric RHAU23. Particulars: FIG. 3. The procedure:
(§1) The annealed oligonucleotides were immobilized on a streptavidin-coated plate (Sigma-Aldrich), followed by incubating with G4P or RHAU23 at the indicated concentrations. Detection of bound proteins used an anti-FLAG Mouse Monoclonal Antibody (Transgen Biotech, China), an HRP Conjugated Goat Anti-Mouse IgG (H+L) secondary antibody (Transgen Biotech, China), and a TMB ELISA Substrate (Transgen Biotech, China) according to the manufacturer's instructions. Absorbance was measured at 450 nm on a Multi-Plate Reader (Biotek, USA). Dissociation constants (Kd) were obtained from the binding curves. The standard error of mean values was calculated from three replicates.
A comparison of G4 binding affinity between G4P and a monomeric RHAU23 was further performed. A G4P comprising only one G4-binding domain was termed monomeric RHAU23.

The target in a further assay is HRAS1. The assay is described as follows: ELISA binding of G4P to immobilized biotinylated oligonucleotide. The conditions noted are these: G4, Antiparallel, read-out: Kd (nM) ± SD. The procedure:
as §1
For orientation: An ELISA detects its analyte on a solid surface through an enzyme-linked reagent.

A further assay concerns the target 3G DNA + 1G RNA. The assay is described as above. The conditions noted are these: 3/1 DNA/RNA Hybrid G4, Parallel, read-out: Kd (nM) ± SD. How it is done:
as §1

A further assay deals with Bcl2. The description is as above. The conditions noted are these: G4, Mixed parallel and antiparallel, read-out: Kd (nM) ± SD. The procedure: as §1
The next assay addresses CSTB. The assay is described as above. Particulars: G4, Parallel, read-out: Kd (nM) ± SD. The procedure: as §1
In the next assay the target is ABTB2. The description is as above. Particulars: G4, GVBQ, read-out: Kd (nM) ± SD. The procedure: as §1
In the next assay the target is NRAS RNA. Described as above. Particulars: G4, read-out: Kd (nM) ± SD. How it is done:
as §1

Another assay concerns the target C20orf24. Described as above. The conditions noted are these: G4, Mixed parallel and antiparallel, read-out: Kd (nM) ± SD. The procedure: as §1
A further assay deals with TERRA. The assay is described as above. The conditions noted are these: G4, Parallel, read-out: Kd (nM) ± SD. The procedure: as §1
The target in a further assay is hTel. Described as above. Particulars: G4, Mixed parallel and antiparallel, read-out: Kd (nM) ± SD. The procedure: as §1
In another assay the target is TBA. The description is as above. Particulars: G4, Antiparallel, read-out: Kd (nM) ± SD. How it is done:
as §1

For a further assay, the target named is DRD3. The assay is described as above. Particulars: G4, Antiparallel, read-out: Kd (nM) ± SD. The procedure: as §1
The target of another assay is c-MYC. The assay is described as above. The conditions noted are these: G4, Parallel, read-out: Kd (nM) ± SD. How it is done:
as §1

A further assay has as its target C9orf72. The assay is described as above. The conditions noted are these: G4, Antiparallel, read-out: Kd (nM) ± SD. The procedure:
as §1

The next assay concerns the target T2B-1. The description is as above. Particulars: G4, Bulge, Parallel, read-out: Kd (nM) ± SD. The procedure: as §1
The next assay has as its target HT. The assay is described as above. Particulars: G4, Mixed parallel and antiparallel, read-out: Kd (nM) ± SD. How it is done:
as §1

The target in a further assay is TERRA3G. The description is as above. Particulars: intermolecular G4, Parallel, read-out: Kd (nM) ± SD. The procedure:
as §1

The target in another assay is SPB1. Described as above. The conditions noted are these: G4, Antiparallel, read-out: Kd (nM) ± SD. How it is done: as §1
The target of the next assay is hTel-3G. Described as above. Particulars: intermolecular G4, Mixed parallel and antiparallel, read-out: Kd (nM) ± SD. The procedure: as §1
A further assay has as its target 2G DNA + 2G RNA. The description is as above. The conditions noted are these: 2/2 DNA/RNA Hybrid G4, Parallel, read-out: Kd (nM) ± SD. How it is done: as §1
A further assay deals with MYOG. Described as above. The conditions noted are these: G4, GVBQ, read-out: Kd (nM) ± SD. How it is done: as §1
A further assay has as its system non-G4 DNAs or RNAs. The assay is described as follows: ELISA binding, summary over non-G4 controls. The conditions noted are these: ssDNA, RNA hairpin, DNA: RNA heteroduplex, i-motif. How it is done: as §1
(§2) Therefore, the following were searched for PQSs of the three well-characterized non-canonical G4s, i.e. G4s with one loop of 8-15 nucleotides (4GL15), G-vacancy-bearing G4s (GVBQ), G4 with a bulge (Bulge), respectively. The G4P had no binding to the non-G4 DNAs or RNAs, including single-stranded DNA (ssDNA), RNA hairpin, DNA: RNA heteroduplex, and i-motif.

For another assay, the target named is G4s. The assay is described as follows: ELISA binding, summary over the 21 G4s. How it is done: as §1, §2
The subject of another assay is DNA of G4 (GGGT)4. The assay is described as follows: Non-denaturing polyacrylamide gel electrophoresis of G4 DNA binding to proteins. The conditions noted are these: for binding to G4 DNAs (new slower band): protein:DNA 2:1 and 6:1, 100 nM G4 DNA, gel with 75 mM KCl. How it is done: After the culture was incubated until OD reach 0.5, the culture was induced with 0.8 mM IPTG and kept for 4 h at 37° C., followed by protein extraction and purification to obtain the proteins monomer, G4P, triplex, and tetrad. The protein extraction was performed by using Capturem™ His-Tagged Purification Miniprep Kit (TAKARA).
The obtained proteins were mixed with the DNA of G4 at a molar concentration ratio of 2:1 and 6:1, respectively, where the DNA of G4 comprises a sequence of (GGGT)4 (SEQ ID NO: 74), with a concentration of 100 nM. The G4 DNAs binding to the proteins were electrophoresed in a non-denaturing polyacrylamide gel containing 75 mM KCl. […] The G4 DNAs moved slower after binding to the proteins, thereby yielding a new band.

Read-outs that look alike come from different tables or passages of the source.

B1: G4P: Polypeptide probe: two RHAU23 G4-binding domains, linker of three GTGSGA hexapeptides, C-terminal 3xFLAG tag, N-terminal HIS tag; SEQ ID NO: 4 (protein)
chain: MGSSHHHHHHSSGLVPRGSHMHPGHLKGREIGMWYAKKQGQKNKGTGSGAGTGSGAGTGSGAHPGHLKGREIGMWYAKKQGQKNKGTGSGADYKDHDGDYKDHDIDYKDDDDK
modifications: Fully synthetic
What is called Kd is the concentration at which binding is half-saturated. In the case of B1, the “discrimination between parallel and nonparallel G4s in binding” value in assay [1] is “almost no discrimination between the parallel and nonparallel G4”. In addition, the Kd on HRAS1 was determined as 3.11 ± 0.25 nM; at 3G DNA + 1G RNA it was 0.59 ± 0.1 nM; on Bcl2, 0.9 ± 0.08 nM; at CSTB it was 0.37 ± 0.03 nM; at ABTB2, 0.59 ± 0.04 nM; at NRAS RNA it was 0.48 ± 0.03 nM. Also, the Kd on C20orf24 was 0.35 ± 0.03 nM; at TERRA it was 1.44 ± 0.11 nM; at hTel, 0.37 ± 0.03 nM; on TBA it was 1.71 ± 0.1 nM; on DRD3, 0.31 ± 0.03 nM; at c-MYC it was 0.99 ± 0.1 nM. For the same molecule, the Kd came out at 1.89 ± 0.21 nM on C9orf72; 0.34 ± 0.02 nM at T2B-1; 0.79 ± 0.05 nM on HT; 0.83 ± 0.05 nM at TERRA3G; 2.83 ± 0.15 nM on SPB1; 0.71 ± 0.05 nM at hTel-3G. Further, the Kd is 0.42 ± 0.06 nM on 2G DNA + 2G RNA; 0.82 ± 0.05 nM at MYOG; 1 to 3 nM at G4s (5 of the 21 G4s, read-out: Kd to 5 G4s); 0.31 to 3.11 nM on G4s (range over the 21 G4s, read-out: Kd values for these G4s). Moreover, the “binding to the non-G4 DNAs or RNAs” value in the assay on non-G4 DNAs or RNAs was “no binding”. Moreover, the “Kd to 16 G4s” value on G4s (16 of the 21 G4s) is recorded as “sub-nM”. In the assay with DNA of G4 (GGGT)4 (compared among monomer, G4P, triplex, tetrad), the “relative affinity with G4s among the proteins” value is reported as “highest affinity”. In addition, the “binding to G4 DNAs (new slower band)” value in the assay on DNA of G4 (GGGT)4 is reported as “binding ability”.

B2: RHAU23: G4P comprising only one G4-binding domain RHAU23; amino acid sequence SEQ ID NO: 5 (protein)
chain: MGSSHHHHHHSSGLVPRGSHMHPGHLKGREIGMWYAKKQGQKNKGTGSGADYKDHDGDYKDHDIDYKDDDDK
modifications: Fully synthetic
As for B2, the “discrimination between parallel and nonparallel G4s in binding” value in [1] is recorded as “only binds parallel, but not nonparallel G4s”.

B3: triplex: Protein comprising three binding domains RHAU23; amino acid sequence SEQ ID NO: 6 (protein)
chain: MGSSHHHHHHSSGLVPRGSHMHPGHLKGREIGMWYAKKQGQKNKGTGSGAGTGSGAGTGSGAHPGHLKGREIGMWYAKKQGQKNKGTGSGAGTGSGAGTGSGAHPGHLKGREIGMWYAKKQGQKNKGTGSGADYKDHDGDYKDHDIDYKDDDDK
modifications: Fully synthetic
Regarding B3, the “binding to G4 DNAs (new slower band)” value in the assay with DNA of G4 (GGGT)4 is recorded as “binding ability”.

B4: tetrad: Protein comprising four binding domains RHAU23; amino acid sequence SEQ ID NO: 7 (protein)
chain: MGSSHHHHHHSSGLVPRGSHMHPGHLKGREIGMWYAKKQGQKNKGTGSGAGTGSGAGTGSGAHPGHLKGREIGMWYAKKQGQKNKGTGSGAGTGSGAGTGSGAHPGHLKGREIGMWYAKKQGQKNKGTGSGAGTGSGAGTGSGAHPGHLKGREIGMWYAKKQGQKNKGTGSGADYKDHDGDYKDHDIDYKDDDDK
modifications: Fully synthetic
Regarding B4, in the assay with DNA of G4 (GGGT)4, the “binding to G4 DNAs (new slower band)” value is “binding ability”.

The values above are taken from patent US11767343B2, “Peptide probe for recognition of G-quadruplex and use thereof in detection of G-quadruplex in cell” (Changzhi Medical College, priority 2020, dated 2023).
